Consider ten substances from US6489293.

In this assay the target is T1, erythropoietin receptor on intact mouse spleen cells (mouse) (UniProt P14753).
T1 sequence (looked up): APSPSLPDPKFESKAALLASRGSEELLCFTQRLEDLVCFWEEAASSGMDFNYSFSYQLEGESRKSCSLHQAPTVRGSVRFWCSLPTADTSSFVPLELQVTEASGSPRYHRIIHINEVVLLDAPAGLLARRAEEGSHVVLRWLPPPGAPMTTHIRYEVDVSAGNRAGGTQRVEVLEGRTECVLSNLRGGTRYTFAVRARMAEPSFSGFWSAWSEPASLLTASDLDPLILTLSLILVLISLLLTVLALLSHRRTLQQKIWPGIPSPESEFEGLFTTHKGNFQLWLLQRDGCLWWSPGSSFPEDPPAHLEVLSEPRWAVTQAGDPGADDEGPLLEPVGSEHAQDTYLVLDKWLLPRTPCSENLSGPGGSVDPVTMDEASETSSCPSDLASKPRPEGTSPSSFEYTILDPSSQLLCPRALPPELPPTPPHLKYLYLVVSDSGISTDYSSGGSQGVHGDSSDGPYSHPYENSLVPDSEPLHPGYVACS
The assay is described as follows: cell-based or functional assay.
Consider “erythropoietin mutant R103E (from UniProt P01588 28-193) (ligand)”, for which the SPECIFIC ACTIVITY (Krystal bioassay units per microgram by RIA, percent of wildtype erythropoietin), first set of experiments was 0%; the SPECIFIC ACTIVITY (Krystal bioassay units per microgram by RIA, percent of wildtype erythropoietin), second set of experiments came to 0%; the reduction in activity below wildtype human recombinant erythropoietin (Krystal bioassay) stood at 1000 fold.

Regarding “erythropoietin mutant R103N (from UniProt P01588 28-193) (ligand)”, the SPECIFIC ACTIVITY (Krystal bioassay units per microgram by RIA, percent of wildtype erythropoietin), first set of experiments came to 0%; the SPECIFIC ACTIVITY (Krystal bioassay units per microgram by RIA, percent of wildtype erythropoietin), second set of experiments came to 0%; the reduction in activity below wildtype human recombinant erythropoietin (Krystal bioassay) was 1000 fold.

Regarding “erythropoietin mutant R103K (from UniProt P01588 28-193) (ligand)”, the SPECIFIC ACTIVITY (Krystal bioassay units per microgram by RIA, percent of wildtype erythropoietin), first set of experiments is 10.2% and the SPECIFIC ACTIVITY (Krystal bioassay units per microgram by RIA, percent of wildtype erythropoietin), second set of experiments worked out at 25%.

As for “erythropoietin mutant R103Q (from UniProt P01588 28-193) (ligand)”, the SPECIFIC ACTIVITY (Krystal bioassay units per microgram by RIA, percent of wildtype erythropoietin), first set of experiments was determined as 0%; the SPECIFIC ACTIVITY (Krystal bioassay units per microgram by RIA, percent of wildtype erythropoietin), second set of experiments is 0%; the reduction in activity below wildtype human recombinant erythropoietin (Krystal bioassay) stood at 1000 fold.

For the substance “erythropoietin mutant R103A (from UniProt P01588 28-193) (ligand)”, the SPECIFIC ACTIVITY (Krystal bioassay units per microgram by RIA, percent of wildtype erythropoietin), first set of experiments amounted to 0%; the SPECIFIC ACTIVITY (Krystal bioassay units per microgram by RIA, percent of wildtype erythropoietin), second set of experiments was 0%; the reduction in activity below wildtype human recombinant erythropoietin (Krystal bioassay) was determined as 1000 fold.

Take “erythropoietin mutant L102A (from UniProt P01588 28-193) (ligand)”: the SPECIFIC ACTIVITY (Krystal bioassay units per microgram by RIA, percent of wildtype erythropoietin), first set of experiments stood at 93.3%.

Turning to “erythropoietin mutant R103H (from UniProt P01588 28-193) (ligand)”, the SPECIFIC ACTIVITY (Krystal bioassay units per microgram by RIA, percent of wildtype erythropoietin), first set of experiments is 0%.

As to “erythropoietin mutant R103D (from UniProt P01588 28-193) (ligand)”, the SPECIFIC ACTIVITY (Krystal bioassay units per microgram by RIA, percent of wildtype erythropoietin), first set of experiments was 0%; the SPECIFIC ACTIVITY (Krystal bioassay units per microgram by RIA, percent of wildtype erythropoietin), second set of experiments came to 0%; the reduction in activity below wildtype human recombinant erythropoietin (Krystal bioassay) was determined as 1000 fold.

As to “erythropoietin mutant L108A (from UniProt P01588 28-193) (ligand)”, the SPECIFIC ACTIVITY (Krystal bioassay units per microgram by RIA, percent of wildtype erythropoietin), first set of experiments amounted to 36.9%.

“erythropoietin mutant R103L (from UniProt P01588 28-193) (ligand)” registered an SPECIFIC ACTIVITY (Krystal bioassay units per microgram by RIA, percent of wildtype erythropoietin), first set of experiments of 0% and an SPECIFIC ACTIVITY (Krystal bioassay units per microgram by RIA, percent of wildtype erythropoietin), second set of experiments of 0.4%.
